In the Human Domainome abundance scans (Beltran et al. 2025):
± gives the uncertainty stated by the source.

B1: Tumor protein 63, residues 545 to 610; numbered along this chain, Q9H3D4 (parent)
chain: TDCSIVSFLARLGCSSCLDYFTTQGLTTIYQIEHYSMDDLASLKIPEQFRHAIWKGILDHRQLHEF

Variants of: B1
Assay: abundance fitness (aPCA) (normalised: wild type 0, dead -1); higher = more abundant; growth selection in yeast, the domain comes from the species named
Conditions: Homo sapiens
Variant TDCSIVSFLARLGCSSCLDYFTTQGLTTIYQHEHYSMDDLASLKIPEQFRHAIWKGILDHRQLHEF [I32H] has an abundance fitness of -0.876 ± 0.24.
TDCSIVSFLARLGCSSCLDYFTTQGGTTIYQIEHYSMDDLASLKIPEQFRHAIWKGILDHRQLHEF [L26G] showed an abundance fitness of -0.935 ± 0.064.
Variant TDCSIVSFLARLGCESCLDYFTTQGLTTIYQIEHYSMDDLASLKIPEQFRHAIWKGILDHRQLHEF [S15E] has an abundance fitness of -0.067 ± 0.049.
With TDCSIVSFLARLGCASCLDYFTTQGLTTIYQIEHYSMDDLASLKIPEQFRHAIWKGILDHRQLHEF [S15A] the abundance fitness was -0.046 ± 0.026.
With TDCSIVSFLARLGCSSCLDYFTTQGLTTIYQIEHYSMDDLASLKIPEQFRHAIWKGILDHRQLVEF [H64V] the abundance fitness was -0.019 ± 0.019.
Work on TDCSIVSFLARLGCSSCLDYFTTQGLTTIYQIEHYSMDDLASLKIPEQFRHAIWKGILDHRQLDEF [H64D] yielded an abundance fitness of -0.028 ± 0.039.
TDCSIVSFLARLGCSSCLDYFTTTGLTTIYQIEHYSMDDLASLKIPEQFRHAIWKGILDHRQLHEF [Q24T] gave an abundance fitness of -0.062 ± 0.026.
Variant TDCSIVSFLARLGCSSCLDYFTTGGLTTIYQIEHYSMDDLASLKIPEQFRHAIWKGILDHRQLHEF [Q24G] has an abundance fitness of -0.081 ± 0.022.
TDCSIVSFLARLGCSSCLDYFTTRGLTTIYQIEHYSMDDLASLKIPEQFRHAIWKGILDHRQLHEF [Q24R] gave an abundance fitness of -0.023 ± 0.017.
TDCSIVSFLARLGCSSCLDYFTTKGLTTIYQIEHYSMDDLASLKIPEQFRHAIWKGILDHRQLHEF [Q24K] gave an abundance fitness of -0.018 ± 0.027.
Variant TDCSIVSFLARLGCSSCLDYFTTQGLTTIYQIEHYSMDDLASLKIPEPFRHAIWKGILDHRQLHEF [Q48P] has an abundance fitness of -0.006 ± 0.044.
TDCSIVSFLARLGCSSCLDYFTTQGLTTIYQIEHYSMDDLASLKIPETFRHAIWKGILDHRQLHEF [Q48T] showed an abundance fitness of -0.023 ± 0.034.
TDCSIVSFLARLGCSSCLDYFTTQGLTTIYQIEHYSMDDLASLKIPEIFRHAIWKGILDHRQLHEF [Q48I] gave an abundance fitness of -0.052 ± 0.056.
For TDCSIVSFLARLGCSSCLDYFTTQGLTTIYQIEYYSMDDLASLKIPEQFRHAIWKGILDHRQLHEF [H34Y], the abundance fitness was -0.08 ± 0.029.
Variant TDCSIVSFLARLGCSSCLDYFTTQGLTTIYQIECYSMDDLASLKIPEQFRHAIWKGILDHRQLHEF [H34C] has an abundance fitness of -0.141 ± 0.049.
Work on TDCSIVSFLARLGCSSCLDYFTTQGLTTIYQIETYSMDDLASLKIPEQFRHAIWKGILDHRQLHEF [H34T] yielded an abundance fitness of -0.084 ± 0.031.
For TDCSIVSFLARLGCSSCLDYFFTQGLTTIYQIEHYSMDDLASLKIPEQFRHAIWKGILDHRQLHEF [T22F], the abundance fitness was -0.102 ± 0.051.
In the case of TDCSIVSFLARLGCSSCLDYFTTQGLTTIYQIEHYSMDWLASLKIPEQFRHAIWKGILDHRQLHEF [D39W], the abundance fitness is reported as -0.554 ± 0.03.
For TDCSIVSFLARLGCSSCLDYFTTQGLTTIYQIEHYSMDDLASLKIPEQFRHAIWKGWLDHRQLHEF [I57W], the abundance fitness was -0.895 ± 0.1.
TDCSIVSFLARLGCSSCLDYFTTQGLTTIYQIEHYSMDDLASLKIPEQFRHAIWKGCLDHRQLHEF [I57C] gave an abundance fitness of -0.107 ± 0.035.
Variant TDCSIVSFLARLGCSSCLDYFTTQGLTTIYQIEHYSMDDLASLKIPEQFRHAIWKGGLDHRQLHEF [I57G] has an abundance fitness of -0.781 ± 0.034.
Work on TDCSIVSWLARLGCSSCLDYFTTQGLTTIYQIEHYSMDDLASLKIPEQFRHAIWKGILDHRQLHEF [F8W] yielded an abundance fitness of -0.024 ± 0.041.
For TDCSIVSFLARLGCSSCLDYFTTQGLTTIYEIEHYSMDDLASLKIPEQFRHAIWKGILDHRQLHEF [Q31E], the abundance fitness was -0.03 ± 0.051.
With TDCSIVSFLARLGCSSCLDYFTTQGLTTIYPIEHYSMDDLASLKIPEQFRHAIWKGILDHRQLHEF [Q31P] the abundance fitness was -0.737 ± 0.044.
With TDCSIVSFLARLGCSSCWDYFTTQGLTTIYQIEHYSMDDLASLKIPEQFRHAIWKGILDHRQLHEF [L18W] the abundance fitness was -0.203 ± 0.08.
With TDCSIVSFLARLGCSSCLDYFTTQGLTTIYQIEHYSMDDLASLKIPTQFRHAIWKGILDHRQLHEF [E47T] the abundance fitness was -0.036 ± 0.032.
In the case of TDCSIVSFLARLGCSSCLDYFTTQGLTTIYQIEHYSMDDLASLKIPAQFRHAIWKGILDHRQLHEF [E47A], the abundance fitness is reported as -0.014 ± 0.025.
TDCSIVSFLARLGCSSCLDYFTTQGLTTIYQIEHYSMDDLAPLKIPEQFRHAIWKGILDHRQLHEF [S42P] gave an abundance fitness of -0.176 ± 0.028.
Variant TDCSIVSFLARMGCSSCLDYFTTQGLTTIYQIEHYSMDDLASLKIPEQFRHAIWKGILDHRQLHEF [L12M] has an abundance fitness of -0.05 ± 0.034.
Work on TDCSIVSFLARAGCSSCLDYFTTQGLTTIYQIEHYSMDDLASLKIPEQFRHAIWKGILDHRQLHEF [L12A] yielded an abundance fitness of -0.068 ± 0.027.
TDCSIVSFLARLGCSSCLDYFTTQGLTTIYQIEHYSMDDFASLKIPEQFRHAIWKGILDHRQLHEF [L40F] showed an abundance fitness of -0.043 ± 0.048.
With TDCSIVSFLARLGCSSCLDYFTTQGLTTIYQIEHYSMDDIASLKIPEQFRHAIWKGILDHRQLHEF [L40I] the abundance fitness was -0.037 ± 0.04.
Variant TDCSIVSFLARLGCSSCLDYFTTQGLTTIYQIEHYSMDDLASLKIPEQFRHAIWKEILDHRQLHEF [G56E] has an abundance fitness of -0.239 ± 0.04.
Work on TDCSIVSFLARLGCSSCLDYFTTQGLTTIYQIEHYSMDDLASLKIPEQFRHAIWKLILDHRQLHEF [G56L] yielded an abundance fitness of -0.77 ± 0.051.
Work on TDCSIVSFLHRLGCSSCLDYFTTQGLTTIYQIEHYSMDDLASLKIPEQFRHAIWKGILDHRQLHEF [A10H] yielded an abundance fitness of -0.16 ± 0.053.
With TDCSIVSFLARLGCSSCLDYFTTQGLTTNYQIEHYSMDDLASLKIPEQFRHAIWKGILDHRQLHEF [I29N] the abundance fitness was -0.719 ± 0.051.
With TDCSIVSFLARLGCSSCLDYFTTQGLTTMYQIEHYSMDDLASLKIPEQFRHAIWKGILDHRQLHEF [I29M] the abundance fitness was 0.042 ± 0.047.
Work on TDCSIVSFLARLGCSSCLDYFTTQGLTTIYQIEHYSMDDLYSLKIPEQFRHAIWKGILDHRQLHEF [A41Y] yielded an abundance fitness of -0.103 ± 0.04.
Variant TDCSIVSFLARLGCSSCLDYFTTQGLTTIYQIEHYSMDDLLSLKIPEQFRHAIWKGILDHRQLHEF [A41L] has an abundance fitness of -0.06 ± 0.027.
Work on TDCSIVSFLARLGCSSCLDYFTTQGLTTIYQIEHYSMDDLASLKIPEQFRHAIWKGILDHRILHEF [Q62I] yielded an abundance fitness of -0.151 ± 0.042.
For TDCSIVSFLARLGCSSCLDYFTTQGLTTIYQIEHYSMDDLASLKIPEQFRHAIWKGILDHRHLHEF [Q62H], the abundance fitness was -0.011 ± 0.031.
